{
  "source": "patent US20230028110A1",
  "about": "(ADAPTATE BIOTHERAPEUTICS, published 2023)",
  "key": {"[1]": {"target": "T1, Recombinant human OX40 (human, UniProt P43489 29-216, limits assumed)", "T1 construct": "also called CD134", "T1 sequence (looked up)": "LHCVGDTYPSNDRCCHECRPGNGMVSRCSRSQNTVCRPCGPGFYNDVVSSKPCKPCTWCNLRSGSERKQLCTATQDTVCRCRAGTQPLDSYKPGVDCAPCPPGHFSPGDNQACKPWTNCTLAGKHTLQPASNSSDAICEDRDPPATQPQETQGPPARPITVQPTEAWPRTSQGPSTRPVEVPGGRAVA", "experiment": "SPR, Reichert 4SPR; antibody captured on Protein A chip, human OX40 flown over", "protocol": "(§1) Recombinant human Vδ1 heterodimer or human OX40 was flown over the cell at a top concentration of 100 nM."}, "[2]": {"target": "T2, TIGIT on activated CD4 T-cells", "T2 chain": "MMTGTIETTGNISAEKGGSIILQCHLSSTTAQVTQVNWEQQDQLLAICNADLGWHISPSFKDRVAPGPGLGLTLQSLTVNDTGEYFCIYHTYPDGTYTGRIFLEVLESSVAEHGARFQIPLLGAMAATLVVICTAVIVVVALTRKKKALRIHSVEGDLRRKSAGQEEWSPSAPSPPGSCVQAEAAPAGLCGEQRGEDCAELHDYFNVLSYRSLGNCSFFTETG", "experiment": "flow cytometry, anti-human IgG secondary antibody, activated CD4 T-cells"}, "[3]": {"target": "T3, Vδ1 chain of the γδ TCR on human Vδ1 γδ T cells (human)", "T3 construct": "whole, on cells; also called cell surface Vδ1 TCR; Vδ1-positive γδ T cells", "T3 sequence (A0A1B0GX56 22-115, stated change not applied)": "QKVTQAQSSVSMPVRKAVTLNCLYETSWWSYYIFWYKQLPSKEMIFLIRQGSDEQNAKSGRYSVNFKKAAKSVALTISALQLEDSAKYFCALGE", "experiment": "flow cytometry on Vδ1 γδ T-cells, anti-human IgG secondary antibody, % cells bound IgG"}, "[4]": {"target": "T3, Vδ1 chain of the γδ TCR on human Vδ1 γδ …", "experiment": "flow cytometry on Vδ1 γδ T-cells, anti-human IgG secondary antibody", "protocol": "(§2) After washing, cells were incubated for a further 15 minutes with anti-human IgG secondary antibodies before washing and fixing. The amount of antibody bound to each cell type was determined by flow cytometry."}, "[5]": {"target": "T4, Recombinant human 4-1BB (human, UniProt Q07011 24-186)", "T4 construct": "also called CD137", "T4 sequence (Q07011 24-186 limits assumed)": "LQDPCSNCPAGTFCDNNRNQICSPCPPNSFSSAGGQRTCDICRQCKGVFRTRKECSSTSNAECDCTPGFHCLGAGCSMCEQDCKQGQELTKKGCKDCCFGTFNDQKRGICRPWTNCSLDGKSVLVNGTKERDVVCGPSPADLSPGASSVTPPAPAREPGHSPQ", "experiment": "SPR, Reichert 4SPR; antibody captured on Protein A chip, human 4-1BB flown over", "protocol": "Recombinant human Vδ1 heterodimer or human 4-1BB was flown over the cell at a top concentration of 100 nM."}, "[6]": {"target": "T3, Vδ1 chain of the γδ TCR on human Vδ1 γδ …", "experiment": "cell-based or functional assay"}, "[7]": {"target": "T5, L1 (DV1-GV4), soluble human Vδ1/Vγ4 γδ TCR heterodimer in leucine zipper format (human)", "T5 construct": "Biotinylated in the DELFIA ranking; also called Antigen L1 (TRDV1/TRGV4); human DV1-GV4; not shown: gamma chain: Vγ4 (TRGV4) domain on a TCR constant region, leucine zipper, histidine tag", "T5 sequence (main, as listed by the source)": "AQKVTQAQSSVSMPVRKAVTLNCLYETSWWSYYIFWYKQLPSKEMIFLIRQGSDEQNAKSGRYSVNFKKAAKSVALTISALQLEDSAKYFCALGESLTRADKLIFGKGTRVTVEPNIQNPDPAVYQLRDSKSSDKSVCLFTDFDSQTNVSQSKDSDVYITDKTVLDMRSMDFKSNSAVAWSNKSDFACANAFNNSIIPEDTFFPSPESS", "experiment": "SPR (Reichert 4SPR), antibody on Protein A chip, antigen flown over"}, "[8]": {"target": "PD-1 on activated CD4 and CD8 T-cells", "sequence (chain, as listed by the source limits assumed)": "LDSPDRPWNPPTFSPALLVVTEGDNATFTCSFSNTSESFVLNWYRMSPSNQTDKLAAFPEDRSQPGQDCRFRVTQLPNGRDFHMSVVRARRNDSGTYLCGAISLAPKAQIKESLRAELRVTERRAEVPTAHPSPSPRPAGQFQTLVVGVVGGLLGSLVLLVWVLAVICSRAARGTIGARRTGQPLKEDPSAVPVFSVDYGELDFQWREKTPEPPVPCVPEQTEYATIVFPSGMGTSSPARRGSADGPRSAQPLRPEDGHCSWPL", "experiment": "flow cytometry on anti-CD3/anti-CD28-activated CD4 and CD8 T-cells, anti-human IgG secondary antibody, % cells bound IgG"}, "[9]": {"target": "T3, Vδ1 chain of the γδ TCR on human Vδ1 γδ …", "experiment": "cell-based or functional assay", "remark": "listed apart in the source"}, "[10]": {"target": "T5, L1 (DV1-GV4), soluble human Vδ1/Vγ4 γδ …", "experiment": "SPR (Reichert 4SPR), antibody on Protein A chip, antigen flown over", "remark": "listed apart in the source", "protocol": "Recombinant human Vδ1 heterodimer or human PD-1 was flown over the cell at a top concentration of 100 nM."}, "[11]": {"target": "T6, Her2 on Her2+ breast cancer cells (SK-BR-3, BT-474) (human, UniProt P04626 23-1255)", "T6 construct": "whole, on cells; also called ErbB-2; CD340", "experiment": "flow cytometry on SK-BR-3 cells, anti-human IgG secondary antibody"}, "[12]": {"target": "T3, Vδ1 chain of the γδ TCR on human Vδ1 γδ …", "experiment": "flow cytometry, Vδ1 γδ T cells of donor TS164, mAb titrated up to about 500 nM at 4 C, anti-human IgG detection", "protocol": "(§3) All incubation steps were performed at 4° C. and mAb binding was determined using flow cytometry to measure the median level of fluorescence. Logarithmic four parameter dose-response curves were fitted using GraphPad Prism 9. […] For Vδ1-positive γδ T cell, data is represented as the mean two donors.\n(§4) A range of target cells were assayed to determine the specificity and affinity of Vδ1 mAb binding. This included expanded skin-derived Vδ1 γδ T-cells, HEK293T cells, Raji cells, and multiple leukocyte subsets within human primary blood mononuclear cells. Adherent or semi-adherent cells (skin-derived Vδ1 γδ T-cells, HEK293T) were detached from tissue culture flask and resuspended in PBS. Similarly, non-adherent cell types (Raji, PBMC), were harvested and resuspended in PBS. Cells were seeded at a final density of 100,000 cells per well in v-bottom 96-well plates. Cells underwent centrifugation and the cell pellets were resuspended in FcR blocking reagent according to the manufacturer's instructions, and incubated for 20 minutes at 4C prior to a further wash. […] To determine the quantity of mAb bound to the cell surface, the cells were then stained with a murine anti-human IgG secondary antibody, conjugated to APC (dilution: 1:100). For Vδ1 γδ T-cells, HEK293T and Raji, the cells were also stained solely with a viability dye."}, "[13]": {"target": "T7, FAPα on FAPα+ fibroblasts (human, UniProt Q12884 1-760)", "T7 construct": "whole, on cells; also called FAPα+ target cells (BJ fibroblasts, human dermal fibroblasts)", "experiment": "flow cytometry on BJ fibroblasts, anti-human Fc secondary antibody, % IgG bound cells", "protocol": "After washing, cells were incubated for a further 15 minutes with anti-human Fc secondary antibodies before washing and fixing. The amount of antibody bound to each cell type was determined by flow cytometry."}, "[14]": {"target": "T3, Vδ1 chain of the γδ TCR on human Vδ1 γδ …", "experiment": "flow cytometry, Vδ1 γδ T cells of donor ATS006, mAb titrated up to about 500 nM at 4 C, anti-human IgG detection", "protocol": "as §3, §4"}, "[15]": {"target": "T8, Recombinant human TIGIT (human, UniProt Q495A1 22-141)", "T8 construct": "also called T cell immunoreceptor with Ig and ITIM domains", "T8 sequence (looked up)": "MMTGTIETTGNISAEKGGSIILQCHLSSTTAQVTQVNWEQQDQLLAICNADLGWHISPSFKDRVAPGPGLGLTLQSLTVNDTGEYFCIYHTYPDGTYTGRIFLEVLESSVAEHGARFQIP", "experiment": "SPR, Reichert 4SPR; antibody captured on Protein A chip, human TIGIT flown over", "protocol": "Recombinant human Vδ1 heterodimer or human TIGIT was flown over the cell at a top concentration of 100 nM."}, "[16]": {"target": "T5, L1 (DV1-GV4), soluble human Vδ1/Vγ4 γδ …", "experiment": "SPR (Reichert 4SPR), antibody on Protein A chip, antigen flown over", "remark": "listed apart in the source", "protocol": "as §1"}, "[17]": {"target": "T3, Vδ1 chain of the γδ TCR on human Vδ1 γδ …", "experiment": "flow cytometry on Vδ1 γδ T-cells, anti-human IgG secondary antibody, % IgG bound cells", "protocol": "as §2"}, "[18]": {"target": "T5, L1 (DV1-GV4), soluble human Vδ1/Vγ4 γδ …", "experiment": "SPR (Reichert 4SPR), antibody on Protein A chip, antigen flown over", "remark": "listed apart in the source", "protocol": "Recombinant human Vδ1 heterodimer or human FAPα was flown over the cell at a concentration of 100 nM with the following parameters: 180 s association, 480 s dissociation, flowrate 25 μL/min, running buffer PBS+0.05% Tween 20. All experiments were performed at room temperature."}, "[19]": {"target": "T9, OX40 on activated CD4 T-cells", "T9 construct": "also called OX40+ CD4 T-cells", "T9 chain": "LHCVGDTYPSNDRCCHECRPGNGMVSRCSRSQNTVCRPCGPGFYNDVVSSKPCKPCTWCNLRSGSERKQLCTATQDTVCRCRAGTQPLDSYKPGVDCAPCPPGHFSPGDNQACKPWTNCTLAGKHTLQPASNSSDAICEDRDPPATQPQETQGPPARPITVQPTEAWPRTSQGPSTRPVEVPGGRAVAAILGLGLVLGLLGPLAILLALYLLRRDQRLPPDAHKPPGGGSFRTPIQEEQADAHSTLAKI", "experiment": "flow cytometry on anti-CD3/anti-CD28-activated CD4 T-cells, anti-human IgG secondary antibody, % cells bound IgG", "protocol": "Initially CD4+ T-cells were negatively selected by magnetic sorting from PBMC buffy coats extracted from whole blood. Following activation by anti-CD3/anti-CD28 antibodies conjugated to Dynabeads (Invitrogen), cell surface expression of OX40 was elevated on CD4 T-cells. […] After washing, cells were incubated for a further 15 minutes with anti-human IgG secondary antibodies before washing and fixing. The amount of antibody bound to each cell type was determined by flow cytometry."}},
  "note": "Read-outs that look alike come from different tables or passages of the source.",
  "data": [
    {"binder": "ADT1-4-2 (antibody, IgG1, V domains shown, IgG1) VH: EVQLQQSGPGLVKPSQTLSLTCAISGDSVSSKSAAWNWIRQSPSRGLEWLGRTYYRSKWSTDYAASVKSRITINPDTSKNQLSLQLNSVTPEDTAVYYCARTWVGYVDRWGQGTLVTVSS VL: DIQMTQSPPALSASVGDRVTITCRASQDINDWLAWYQHKPGKAPKLLIYDASSLESGVPLRFSGSGSGTEFTLTISSLQPDDFATYYCQQKYSAPQVTFGQGTRLEIK", "values": [
      {"measurement": "binding result", "setting": "[1]", "value": "no binding"},
      {"measurement": "binding result", "setting": "[2]", "value": "no binding (tested: 200 nM)"},
      {"measurement": "EC50 (read off the curve)", "setting": "[3]", "value": "~0.2", "unit": "nM"},
      {"measurement": "EC50 (read off the curve)", "setting": "[4]", "value": "~5", "unit": "nM"},
      {"measurement": "binding result", "setting": "[5]", "value": "no binding"},
      {"measurement": "IC50 (read off the curve), Vδ1 TCR downregulation, γδ T-cells with activated OX40+ CD4 T-cells", "setting": "[6]", "value": "~0.1", "unit": "nM"},
      {"measurement": "Kd", "setting": "[7]", "value": 0.01, "unit": "nM"},
      {"measurement": "binding result", "setting": "[8]", "value": "no binding (tested: 200 nM)"},
      {"measurement": "IC50 (read off the curve), Vδ1 TCR downregulation, γδ T-cells with FAPα+ fibroblasts", "setting": "[9]", "value": "~2", "unit": "nM"},
      {"measurement": "Kd", "setting": "[10]", "value": 0.29, "unit": "nM"},
      {"measurement": "binding result", "setting": "[11]", "value": "no binding (tested: about 300 nM)"},
      {"measurement": "EC50 (read off the curve)", "setting": "[12]", "value": "~2", "unit": "nM"},
      {"measurement": "binding result", "setting": "[13]", "value": "no binding (tested: about 70 nM)"},
      {"measurement": "EC50 (read off the curve)", "setting": "[14]", "value": "~2", "unit": "nM"},
      {"measurement": "binding result", "setting": "[15]", "value": "no binding"},
      {"measurement": "Kd", "setting": "[16]", "value": 1.25, "unit": "nM"},
      {"measurement": "EC50 (read off the curve)", "setting": "[17]", "value": "~0.3", "unit": "nM"},
      {"measurement": "Kd", "setting": "[18]", "value": 0.14, "unit": "nM"},
      {"measurement": "binding result", "setting": "[19]", "value": "no binding (tested: 200 nM)"}
    ]}
  ]
}
